Experimental data from paper PMC12502808, “Catalytic His-loop flexibility drives high activity in hyperthermophilic esterase EstE1 while preserving structural stability” (Microbiology Spectrum, 2025).
Positions count from the first letter of the chain named. In names and notes the source's numbering stands. Blank lines part the entries; values can stand above or below the molecule they belong to.

Assays:
[1] = system: CC(=O)Oc1ccc([N+](=O)[O-])cc1; experiment: purified protein; type: biochemical, Pseudomonas sp. ECU1011; conditions: 100 mM Tris-HCl, 100 mM NaCl, pH 7.5, optimal temperature (45-50°C for WT, 30°C for mutants)
[2] = target: EstE1 wild type (hyperthermophilic esterase); experiment: SEC; Superdex 200 column equilibrated with 50 mM sodium phosphate, 150 mM NaCl, pH 7.0; molecular weight determination of the purified protein
purified protein [3] = substrate: CC(=O)Oc1ccc([N+](=O)[O-])cc1; experiment: purified protein; type: biochemical, Pseudomonas sp. ECU1011; conditions: 100 mM Tris-HCl, 100 mM NaCl, pH 7.5, optimal temperature (45-50°C)
purified protein [4] = substrate: CCCCCC(=O)Oc1ccc([N+](=O)[O-])cc1; experiment: purified protein; type: biochemical, uncultured archaeon; conditions: 100 mM Tris-HCl, 100 mM NaCl, pH 7.5, optimal temperature 70°C

Molecule: rPPE (Pseudomonas sp. ECU1011; D287G)
- Km [1]: 114 ± 2 µM
- kcat [1]: 13 ± 1 s⁻¹
- kcat/Km [1]: 110000 ± 10000 M⁻¹ s⁻¹

Molecule: rPPE (Pseudomonas sp. ECU1011; D287E)
- Km [1]: 6 ± 1 µM
- kcat [1]: 2.1 ± 0.1 s⁻¹
- kcat/Km [1]: 330000 ± 20000 M⁻¹ s⁻¹

- stoichiometry N [2]: 2
Molecule: EstE1 wild type (hyperthermophilic esterase) (enzyme)

B1: rPPE (Pseudomonas sp. ECU1011) (protein)
chain: GSPGVEQHTKAFLEALEQGGGKPLEQLSPKDARAVLTGAQASVKVDLSGIEVKERTIQANGQSIKLQVVRPANVKGELPVFMFFHGGGWVLGDFPTHQRLIRDLVVGSGAVAVYVDYTPSPESHYPTAINQAYAATQWVAEHGKEIGVDGKRLAVAGNSVGGNMAAVVALKAKEAGTPALRFQLLLWPVTDASFETASYKQFADGHFLTTGMMKWFWDNYTTDAKAREQIYASPLRASSEQLKGLPPALVQTAEFDVLRDEGEAYARKLNAAGVTVTSVRYNGMIHDYGLLNPLSQVPAVKAAMRQAGTELKVHLQ
- Km (purified protein [3]): 33 ± 1 µM
- kcat (purified protein [3]): 2 ± 0.1 s⁻¹
- kcat/Km (purified protein [3]): 60000 ± 10000 M⁻¹ s⁻¹

B2: EstE1 (uncultured archaeon) (protein)
chain: MPLDPQIKPILERIRALSIAASPQELRRQVEEQSRLLTAAVQEPIAETRDVHIPVSGGSIRARVYFPKKAAGLPAVLYYHGGGFVFGSIETHDHICRRLSRLSDSVVVSVDYRLAPEYKFPTAVEDAYAALKWVADRADELGVDPDRIAVAGDSAGGNLAAVVSILDRNSGEKLVKKQVLIYPVVNMTGVPTASLVEFGVAETTSLPIELMVWFGRQYLKRPEEAYDFKASPLLADLGGLPPALVVTAEYDPLRDEGELYAYKMKASGSRAVAVRFAGMVHGFVSFYPFVDAGREALDLAAASIRSGLQPS
- Km (purified protein [4]): 1520 ± 17 µM
- kcat (purified protein [4]): 2900 ± 1 s⁻¹
- kcat/Km (purified protein [4]): 1.91e+06 ± 20000 M⁻¹ s⁻¹

B3: EstE1 (uncultured archaeon; G282Q) (protein)
chain: B2 chain with G282Q
- Km (purified protein [4]): 745 ± 40 µM
- kcat (purified protein [4]): 950 ± 27 s⁻¹
- kcat/Km (purified protein [4]): 1.28e+06 ± 30000 M⁻¹ s⁻¹

B4: EstE1 (uncultured archaeon; G282N) (protein)
chain: B2 chain with G282N
- Km (purified protein [4]): 1330 ± 79 µM
- kcat (purified protein [4]): 1980 ± 84 s⁻¹
- kcat/Km (purified protein [4]): 1.49e+06 ± 30000 M⁻¹ s⁻¹
